Measurements: patent CN118063606A (JIANGXI SAIJI BIOTECHNOLOGY CO LTD; HANGZHOU SAIJI …, dated 2024)

B1: 嵌合单抗rhA3 (重组嵌合抗体A3单抗) (antibody, human IgG4 S228P, kappa, V domains shown)
VH: QSVKESGGRLVTPGGTLTLTCTVSGFSLSTYYMSWVRQAPGKGLEWIGSIESYGDRYYATWAKGRFTISKTSSTTVDLKMTSLTASDTATYFCTRNDLSWDNDNIWGPGTLVTVSS
VL: DVQMTQTPSSVSVSVGGTVTINCQASQSVYGNNELNWYQQKSGQPPKLLIYKAGTLASGVPSRFSGSGSGTQFTLTISDLECDDAAIYYCQGGYWGQRAFGGGTKLEIKR
B2: 小鼠抗THSD7A单抗A3 (antibody, V domains shown)
VH: B1 VH
VL: DVQMTQTPSSVSVSVGGTVTINCQASQSVYGNNELNWYQQKSGQPPKLLIYKAGTLASGVPSRFSGSGSGTQFTLTISDLECDDAAIYYCQGGYWGQRAFGGGTKLEIK
notes: Selected from a phage scFv library of immunised mice; variable regions cloned into a eukaryotic expression vector and expressed in 293T cells

What was measured:
[1] = target: 重组人THSD7A蛋白 (recombinant human THSD7A protein) (human) (UniProt Q9UPZ6); test: indirect ELISA on coated THSD7A, against the anti-THSD7A human serum standard
[2] = target: 重组人THSD7A蛋白 (recombinant human THSD7A protein) (human) (UniProt Q9UPZ6); test: indirect ELISA on coated THSD7A, serum standard read on the rhA3 standard curve
[3] = target: 重组人THSD7A蛋白 (recombinant human THSD7A protein) (human) (UniProt Q9UPZ6); test: indirect ELISA on coated THSD7A, value read from the curve of the anti-THSD7A human serum standard
[4] = target: T1, 重组人THSD7A蛋白 (recombinant human THSD7A protein) (human, UniProt Q9UPZ6 48-1606); test: phage ELISA / ELISA of supernatants on the antigen, then chemiluminescence immunoassay of purified antibody
T1 construct: Expressed by transient transfection of 293T cells; no tag is mentioned; also called hTHSD7A; 人源THSD7A
T1 sequence (Q9UPZ6 48-1606 limits assumed): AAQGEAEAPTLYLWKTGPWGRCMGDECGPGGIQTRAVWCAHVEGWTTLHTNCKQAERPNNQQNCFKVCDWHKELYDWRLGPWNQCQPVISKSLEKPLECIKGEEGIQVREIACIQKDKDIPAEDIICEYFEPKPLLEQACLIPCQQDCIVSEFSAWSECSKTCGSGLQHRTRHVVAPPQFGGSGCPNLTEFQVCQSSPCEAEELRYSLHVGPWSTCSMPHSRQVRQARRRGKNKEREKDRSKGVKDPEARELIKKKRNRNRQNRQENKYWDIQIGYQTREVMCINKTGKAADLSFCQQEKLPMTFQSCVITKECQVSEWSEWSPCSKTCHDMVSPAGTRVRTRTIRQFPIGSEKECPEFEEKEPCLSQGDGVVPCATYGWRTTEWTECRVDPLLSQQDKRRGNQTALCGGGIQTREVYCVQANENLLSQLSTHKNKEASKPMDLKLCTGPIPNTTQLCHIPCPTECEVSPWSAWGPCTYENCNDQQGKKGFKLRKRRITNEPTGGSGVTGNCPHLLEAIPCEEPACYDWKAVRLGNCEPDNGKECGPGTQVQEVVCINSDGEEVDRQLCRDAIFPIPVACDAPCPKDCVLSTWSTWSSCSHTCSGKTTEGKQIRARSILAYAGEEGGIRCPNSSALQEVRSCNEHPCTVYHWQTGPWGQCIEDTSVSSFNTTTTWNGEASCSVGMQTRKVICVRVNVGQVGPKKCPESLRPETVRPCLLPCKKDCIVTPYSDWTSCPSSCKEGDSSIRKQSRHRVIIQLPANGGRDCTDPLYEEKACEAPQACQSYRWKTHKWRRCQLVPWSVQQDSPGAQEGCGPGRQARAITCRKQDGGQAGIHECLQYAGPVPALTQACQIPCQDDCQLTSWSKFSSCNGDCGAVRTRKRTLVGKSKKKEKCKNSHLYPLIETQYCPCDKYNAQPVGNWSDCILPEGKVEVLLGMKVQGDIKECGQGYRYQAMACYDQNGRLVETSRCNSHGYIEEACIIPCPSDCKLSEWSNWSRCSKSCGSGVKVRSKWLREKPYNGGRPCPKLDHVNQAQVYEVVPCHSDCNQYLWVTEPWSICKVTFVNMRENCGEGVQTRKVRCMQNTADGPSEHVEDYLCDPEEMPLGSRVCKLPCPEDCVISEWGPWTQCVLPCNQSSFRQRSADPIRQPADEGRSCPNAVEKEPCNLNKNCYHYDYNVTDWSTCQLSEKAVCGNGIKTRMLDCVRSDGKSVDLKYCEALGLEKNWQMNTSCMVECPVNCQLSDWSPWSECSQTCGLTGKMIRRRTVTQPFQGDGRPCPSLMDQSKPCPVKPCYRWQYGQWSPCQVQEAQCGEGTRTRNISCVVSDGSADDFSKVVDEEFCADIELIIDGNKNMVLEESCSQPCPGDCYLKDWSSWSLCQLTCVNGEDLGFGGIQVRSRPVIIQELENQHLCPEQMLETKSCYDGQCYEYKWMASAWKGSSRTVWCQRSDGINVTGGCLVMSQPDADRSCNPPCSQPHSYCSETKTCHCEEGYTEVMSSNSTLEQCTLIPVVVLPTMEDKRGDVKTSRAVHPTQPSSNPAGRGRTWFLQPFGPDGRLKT

| Binder | THSD7A抗体活性 per ng [1] [U/ng] | 比活 at 4ng/mL rhA3 [1] [U/ng] | 比活 at 20ng/mL rhA3 [1] [U/ng] | 比活 at 100ng/mL rhA3 [1] [U/ng] | 比活 (serum standard 12U/mL on rhA3 curve) [2] [U/ng] | 比活 (serum standard 60U/mL on rhA3 curve) [2] [U/ng] | 比活 (serum standard 300U/mL on rhA3 curve) [2] [U/ng] | THSD7A抗体浓度 (read from serum standard curve) at 4ng/mL rhA3 [3] [U/mL] | THSD7A抗体浓度 (read from serum standard curve) at 20ng/mL rhA3 [3] [U/mL] | THSD7A抗体浓度 (read from serum standard curve) at 100ng/mL rhA3 [3] [U/mL] | binding result [4] |
| --- | --- | --- | --- | --- | --- | --- | --- | --- | --- | --- | --- |
| B1 | 3 | 3.01 | 2.99 | 3.05 | 3.01 | 2.97 | 2.97 | 12 | 60.5 | 305 | – |
| B2 | – | – | – | – | – | – | – | – | – | – | binds |
